Assay results from patent US8822645B2, “Prostaglandin E2 dual variable domain immunoglobulins and uses thereof” (AbbVie Inc., priority 2008, dated 2014).
Where two headings read alike, the source gives them in different places.

Columns and labels:
[1] = test system: PGE2 / human EP4 receptor in HEK293 Gα16 cells; test: EP4 bioassay (Ca++ flux, neutralization of PGE2); type: cell-based; conditions: EP4 bioassay, Ca++ flux
Method: The ability of anti-PGE2 antibodies and anti-PGE2 containing DVD-Ig molecules to inhibit the cellular response of PGE2 was determined in a Ca++ flux assay in HEK293 Gα16 cells stably transfected with human EP4 receptor. Cells were plated in black/clear poly-D-lysine plates, (Corning #3667, Corning, N.Y.) and incubated with Ca++-sensitive dye (Molecular Devices) for 90 minutes. Stock PGE2 (in 200 proof ethanol) was diluted with FLIPR buffer (containing 1×HBSS (Invitrogen, Carlsbad, Calif.), 20 mM HEPES (Invitrogen, Carlsbad, Calif.), 0.1% BSA (Sigma, St. Louis, Mo.) and 2.5 mM Probenecid (Sigma, St. Louis, Mo.)). Anti-PGE2 antibodies, DVD-Ig molecules or isotype matched control antibodies were also pre-diluted in FLIPR buffer. 25 μl of PGE2 or pre-incubated PGE2/antibody mixture or pre-incubated PGE2/DVD-Ig molecule mixture was added to the wells pre-plated with cells. A dose response of PGE2 was done by a serial titration of PGE2 and was determined using FLIPR1 or Tetra (Molecular Devices). EC50 was determined using GraphPad Prism 5 (GraftPad Software, La Jolla, Calif.). […] Ca++ flux was monitored using FLIPR1 and data was analyzed using GraphPad Prism 5.
The ability of anti-PGE2 antibodies and anti-PGE2 containing DVD-Ig molecules to inhibit the cellular response of PGE2 was determined in a Ca++ flux assay using stably transfected human EP4 in HEK293 Gα16 cells. Cells were plated in black/clear Poly-D-Lysine plates, (Corning #3667) and incubated with Ca++-sensitive dye (Molecular Devices) for 90 minutes. Stock PGE2 (in 200 proof ethanol) was diluted with FLIPR buffer (containing 1×HBSS, 20 mM HEPES, 0.1% BSA and 2.5 mM Probenecid). Anti-PGE2 antibodies, DVD-Ig molecules or isotype matched control antibodies were also pre-diluted in FLIPR buffer. 25 μl of PGE2 or pre-incubated PGE2/antibody mixture or pre-incubated PGE2/DVD-Ig molecule mixture was added to the wells pre-plated with cells. A dose response of PGE2 was done by a serial titration of PGE2 and was determined using FLIPR1 or Tetra (Molecular Devices). EC50 was determined using GraphPad Prism 5. […] Ca++ flux was monitored using FLIPR1 and data was analyzed using GraphPad Prism 5.

[2] = PGE2-biotinamide ELISA (PGE2 binding)
Method: (§1) Enzyme linked immunosorbent assays to screen for anti-PGE2 antibodies or anti-PGE2 containing DVD-Ig molecules that bind prostaglandin E2 were performed as follows. ELISA plates (Costar 3369, Corning, N.Y.) were coated with 50 μl of anti-host Fc IgG (Sigma, St. Louis, Mo.) at 2 μg/ml in PBS (Invitrogen Carlsbad, Calif.). Following an overnight incubation at 4° C., the plate was blocked with 200 μl Superblock (Pierce #37535, Rockford, Ill.). The IgG or DVD-Ig containing samples were diluted to 1 μg/ml in Assay Buffer (10% Superblock in PBS containing 0.05% Surfactamps (Pierce #37535, Rockford, Ill.) and incubated on the plate at 50 μl/well for 1 hour at room temperature. Following the incubation, plates were washed four times with TTBS (Tween-Tris Buffered Solution). For PGE2 binding, PGE2-biotinamide (Cayman Chemicals, Ann Arbor, Mich.) was diluted to 30 nM and serially diluted in Assay Buffer. The titration curve was added to each IgG or DVD-Ig sample at a volume of 50 μl/well and incubated for 1 hour at room temperature. The plates were washed as previously described and 50 μl/well of 1:5000 dilution of streptavidin polyhrp40 (Fitzgerald Industries, Concord, Mass.) in Assay Buffer was added and incubated for 45 minutes at room temperature. A final wash step was performed and the plates were developed using a single step TMB system (Sigma #T8665, St. Louis, Mo.) and 2N H2SO4. Plates were read at 450 nm on a Molecular Devices Spectramax plate reader (Sunnyvale, Calif.). EC50 was determined using GraphPad Prism 5 (GraphPad Software, La Jolla, Calif.) (FIG. 2).
as §1, with “ELISA” for “Enzyme linked immunosorbent assays to screen for anti-PGE2 antibodies or anti-PGE2 containing DVD-Ig molecules that bind prostaglandin E2 were performed as follows. ELISA”, “(Invitrogen,” for “(Invitrogen”, “IgG” for “IgG or DVD-Ig”, “Solution).” for “Solution). For PGE2 binding,”, “Calif.).” for “Calif.) (FIG. 2).”

[3] = PGE2 VD in C-terminal position, read-out: C-terminal VD PGE2 Neutralization EC50
[4] = PGE2 VD in C-terminal position, read-out: Direct Bind ELISA C-terminal VD EC50
[5] = PGE2 VD in N-terminal position, read-out: N-terminal VD PGE2 Neutralization EC50
[6] = PGE2 VD in N-terminal position, read-out: Direct Bind ELISA N-terminal VD EC50

EC50 [2, 4] [nM]	EC50 [2, 6] [nM]	Molecule	EC50 [1, 3] [nM]	EC50 [1, 5] [nM]	further results
1.14		DVD158: DVD-Ig construct listed in Table 4 (antibody) VH: QVQLVESGGGVVQPGRSLRLSCAASGFTFSVYGMNWVRQAPGKGLEWVAIIWYDGDNQYYADSVKGRFTISRDNSKNTLYLQMNGLRAEDTAVYYCARDLRTGPFDYWGQGTLVTVSSASTKGPEVQLVQSGAEVKKPGASVKVSCKASGYTFTKYWLGWVRQAPGQGLEWMGDIYPGYDYTHYNEKFKDRVTLTTDTSTSTAYMELRSLRSDDTAVYYCARSDGSSTYWGQGTLVTVSS VL: EIVLTQSPDFQSVTPKEKVTITCRASQSIGSSLHWYQQKPDQSPKLLIKYASQSFSGVPSRFSGSGSGTDFTLTINSLEAEDAAAYYCHQSSSLPFTFGPGTKVDIKRTVAAPDVLMTQTPLSLPVTPGEPASISCTSSQNIVHSNGNTYLEWYLQKPGQSPQLLIYKVSNRFSGVPDRFSGSGSGTDFTLKISRVEAEDVGVYYCFQVSHVPYTFGGGTKVEIKR	0.21		
	1.02	DVD161: DVD-Ig construct listed in Table 4 (antibody) VH: EVQLVQSGAEVKKPGASVKVSCKASGYTFTKYWLGWVRQAPGQGLEWMGDIYPGYDYTHYNEKFKDRVTLTTDTSTSTAYMELRSLRSDDTAVYYCARSDGSSTYWGQGTLVTVSSASTKGPEVQLVESGGGLVQPGGSLRLSCAASGYTFTNYGMNWVRQAPGKGLEWVGWINTYTGEPTYAADFKRRFTFSLDTSKSTAYLQMNSLRAEDTAVYYCAKYPHYYGSSHWYFDVWGQGTLVTVSS VL: DVLMTQTPLSLPVTPGEPASISCTSSQNIVHSNGNTYLEWYLQKPGQSPQLLIYKVSNRFSGVPDRFSGSGSGTDFTLKISRVEAEDVGVYYCFQVSHVPYTFGGGTKVEIKRTVAAPDIQMTQSPSSLSASVGDRVTITCSASQDISNYLNWYQQKPGKAPKVLIYFTSSLHSGVPSRFSGSGSGTDFTLTISSLQPEDFATYYCQQYSTVPWTFGQGTKVEIKR		0.193	
		AB048: parent antibody, PGE2, SEQ ID 48/49 (antibody, V domains shown) VH: EVQLVQSGAEVKKPGASVKVSCKASGYTFTKYWLGWVRQAPGQGLEWMGDIYPGYDYTHYNEKFKDRVTLTTDTSTSTAYMELRSLRSDDTAVYYCARSDGSSTYWGQGTLVTVSS VL: DVLMTQTPLSLPVTPGEPASISCTSSQNIVHSNGNTYLEWYLQKPGQSPQLLIYKVSNRFSGVPDRFSGSGSGTDFTLKISRVEAEDVGVYYCFQVSHVPYTFGGGTKVEIKR			EC50 ([1]; parent antibody (cell spans both VD columns), read-out: PGE2 Neutralization EC50): 0.017 nM; EC50 ([2]; parent antibody (cell spans both VD columns), read-out: Direct Bind ELISA EC50 (PGE2 binding)): 1.49 nM
	1.23	DVD157: DVD-Ig construct listed in Table 4 (antibody) VH: EVQLVQSGAEVKKPGASVKVSCKASGYTFTKYWLGWVRQAPGQGLEWMGDIYPGYDYTHYNEKFKDRVTLTTDTSTSTAYMELRSLRSDDTAVYYCARSDGSSTYWGQGTLVTVSSASTKGPQVQLVESGGGVVQPGRSLRLSCAASGFTFSVYGMNWVRQAPGKGLEWVAIIWYDGDNQYYADSVKGRFTISRDNSKNTLYLQMNGLRAEDTAVYYCARDLRTGPFDYWGQGTLVTVSS VL: DVLMTQTPLSLPVTPGEPASISCTSSQNIVHSNGNTYLEWYLQKPGQSPQLLIYKVSNRFSGVPDRFSGSGSGTDFTLKISRVEAEDVGVYYCFQVSHVPYTFGGGTKVEIKRTVAAPEIVLTQSPDFQSVTPKEKVTITCRASQSIGSSLHWYQQKPDQSPKLLIKYASQSFSGVPSRFSGSGSGTDFTLTINSLEAEDAAAYYCHQSSSLPFTFGPGTKVDIKR		0.217	
1.32		DVD162: DVD-Ig construct listed in Table 4 (antibody) VH: EVQLVESGGGLVQPGGSLRLSCAASGYTFTNYGMNWVRQAPGKGLEWVGWINTYTGEPTYAADFKRRFTFSLDTSKSTAYLQMNSLRAEDTAVYYCAKYPHYYGSSHWYFDVWGQGTLVTVSSASTKGPEVQLVQSGAEVKKPGASVKVSCKASGYTFTKYWLGWVRQAPGQGLEWMGDIYPGYDYTHYNEKFKDRVTLTTDTSTSTAYMELRSLRSDDTAVYYCARSDGSSTYWGQGTLVTVSS VL: DIQMTQSPSSLSASVGDRVTITCSASQDISNYLNWYQQKPGKAPKVLIYFTSSLHSGVPSRFSGSGSGTDFTLTISSLQPEDFATYYCQQYSTVPWTFGQGTKVEIKRTVAAPDVLMTQTPLSLPVTPGEPASISCTSSQNIVHSNGNTYLEWYLQKPGQSPQLLIYKVSNRFSGVPDRFSGSGSGTDFTLKISRVEAEDVGVYYCFQVSHVPYTFGGGTKVEIKR	0.067		
1.3		DVD164: DVD-Ig construct listed in Table 4 (antibody) VH: QVQLQESGPGLVKPSETLSLTCTVSGFSLIGYDLNWIRQPPGKGLEWIGIIWGDGTTDYNSAVKSRVTISKDTSKNQFSLKLSSVTAADTAVYYCARGGYWYATSYYFDYWGQGTLVTVSSASTKGPEVQLVQSGAEVKKPGASVKVSCKASGYTFTKYWLGWVRQAPGQGLEWMGDIYPGYDYTHYNEKFKDRVTLTTDTSTSTAYMELRSLRSDDTAVYYCARSDGSSTYWGQGTLVTVSS VL: DIQMTQSPSSLSASVGDRVTITCRASQSISNNLNWYQQKPGKAPKLLIYYTSRFHSGVPSRFSGSGSGTDFTFTISSLQPEDIATYYCQQEHTLPYTFGQGTKLEIKRTVAAPDVLMTQTPLSLPVTPGEPASISCTSSQNIVHSNGNTYLEWYLQKPGQSPQLLIYKVSNRFSGVPDRFSGSGSGTDFTLKISRVEAEDVGVYYCFQVSHVPYTFGGGTKVEIKR	0.079		
